The values below are quoted from earlier work in PMC6063947.

This data set deals with Asp61 (UniProt position 61, VMGLVDAIPMI). In words: NMR.

“ATP synthase subunit c (F0 sector, proteolipid) (Escherichia coli)”: the pKa is reported as 7.1.
